From the supplement of paper PMC11908140

B1: library; numbered along this chain (parent)
chain: MRKPRAAVGSGHRKQAASQEGRQKHAKNNSQAKPSACDGLARQPEEVVLQASVSSYHLFRDVAEVTAFRGSLLSWYDQEKRDLPWRRRAEDEMDLDRRAYAVWVSEVMLQQTQVATVINYYTGWMQKWPTLQDLASASLEEVNQLWAGLGYYSRGRRLQEGARKVVEELGGHMPRTAETLQQLLPGVGRYTAGAIASIAFGQATGVVDGNVARVLCRVRAIGADPSSTLVSQQLWGLAQQLVDPARPGDFNQAAMELGATVCTPQRPLCSQCPVESLCRARQRVEQEQLLASGSLSGSPDVEECAPNTGQCHLCLPPSEPWDQTLGVVNFPRKASRKPPREESSATCVLEQPGALGAQILLVQRPNSGLLAGLWEFPSVTWEPSEQLQRKALLQELQRWAGPLPATHLRHLGEVVHTFSHIKLTYQVYGLALEGQTPVTTVPPGARWLTQEEFHTAAVSTAMKKVFRVYQGQQPGTCMGSKRSQVSSPCSRKKPRMGQQVLDNFFRSHISTDAHSLNSAAQ

Variants of: B1
Assay: 8OG:A repair function score (normalized; synonymous = 0, nonsense = -1) (normalized log-likelihood score); higher = more repair activity (WT-like)
Details: with 8OG:A DNA repair reporter (GFP) in HEK-293 MUTYH KO cells
Method in brief: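 GFP+ (repair) and GFP− bins of viable mCherry+ cells were collected at 72 h from MUTYH knockout HEK-293 cells bearing lentiviral MUTYH cDNA NNN codon-scan libraries in 10 pg/ml doxycycline, co-transfected with an 8OG:A GFP repair reporter and mCherry. Tile amplicons were sequenced, and per-tile Rosace fitness scores were normalized to a repair function score anchored on synonymous and nonsense distributions. Synonymous medians were set to 0 and nonsense to -1, with variants under 300 counts per million at the start removed.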
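Note: cells sorted at 72 h after reporter transfection.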

Variant	8OG:A repair function score
MRKPRAAVGSGHRKQAASQEGRQKHAKNNSQAKPSACDGLARQPEEVVLQASVSSYHLFRDVAEVTAFRGSLLSWYDQEKRDLPWRRRAEDEMDLDRRAYAVWVSEVMLQQTQVATVINYYTGWMQKWPTLQDLASASLEEVNQLWAGLGYYSRGRRLQEGARKVVEELGGHMPRTAETLQQLLPGVGRYTAGAIASIAFGQATGVVDGNVARVLCRVRAIGADPSSTLVSQQLWGLAQQLVDPARPGDFNQAAMELGATVCTPQRPLCSQCPVESLCRARQRVEQEQLLASGSLSGSPDVEECAPNSGQCHLCLPPSEPWDQTLGVVNFPRKASRKPPREESSATCVLEQPGALGAQILLVQRPNSGLLAGLWEFPSVTWEPSEQLQRKALLQELQRWAGPLPATHLRHLGEVVHTFSHIKLTYQVYGLALEGQTPVTTVPPGARWLTQEEFHTAAVSTAMKKVFRVYQGQQPGTCMGSKRSQVSSPCSRKKPRMGQQVLDNFFRSHISTDAHSLNSAAQ [T308S]	-0.000367
MRKPRAAVGSGHRKQAASQEGRQKHAKNNSQAKPSACDGLARQPEEVVLQASVSSYHLFRDVAEVTAFRGSLLSWYDQEKRDLPWRRRAEDEMDLDRRAYAVWVSEVMLQQTQVATVINYYTGWMQKWPTLQDLASASLEEVNQLWAGLGYYSRGRRLQEGARKVVEELGGHMPRTAETLQQLLPGVGRYTAGAIASIAFGQATGVVDGNVARVLCRVRAIGADPSSTLVSQQLWGLAQQLVDPARPGDFNQAAMELGATVCTPQRPLCSQCPVESLCRARQRVEQEQLLASGSLSGSPDVEECAPNIGQCHLCLPPSEPWDQTLGVVNFPRKASRKPPREESSATCVLEQPGALGAQILLVQRPNSGLLAGLWEFPSVTWEPSEQLQRKALLQELQRWAGPLPATHLRHLGEVVHTFSHIKLTYQVYGLALEGQTPVTTVPPGARWLTQEEFHTAAVSTAMKKVFRVYQGQQPGTCMGSKRSQVSSPCSRKKPRMGQQVLDNFFRSHISTDAHSLNSAAQ [T308I]	-0.0904
MRKPRAAVGSGHRKQAASQEGRQKHAKNNSQAKPSACDGLARQPEEVVLQASVSSYHLFRDVAEVTAFRGSLLSWYDQEKRDLPWRRRAEDEMDLDRRAYAVWVSEVMLQQTQVATVINYYTGWMQKWPTLQDLASASLEEVNQLWAGLGYYSRGRRLQEGARKVVEELGGHMPRTAETLQQLLPGVGRYTAGAIASIAFGQATGVVDGNVARVLCRVRAIGADPSSTLVSQQLWGLAQQLVDPARPGDFNQAAMELGATVCTPQRPLCSQCPVESLCRARQRVEQEQLLASGSLSGSPDVEECAPNPGQCHLCLPPSEPWDQTLGVVNFPRKASRKPPREESSATCVLEQPGALGAQILLVQRPNSGLLAGLWEFPSVTWEPSEQLQRKALLQELQRWAGPLPATHLRHLGEVVHTFSHIKLTYQVYGLALEGQTPVTTVPPGARWLTQEEFHTAAVSTAMKKVFRVYQGQQPGTCMGSKRSQVSSPCSRKKPRMGQQVLDNFFRSHISTDAHSLNSAAQ [T308P]	-0.0519
MRKPRAAVGSGHRKQAASQEGRQKHAKNNSQAKPSACDGLARQPEEVVLQASVSSYHLFRDVAEVTAFRGSLLSWYDQEKRDLPWRRRAEDEMDLDRRAYAVWVSEVMLQQTQVATVINYYTGWMQKWPTLQDLASASLEEVNQLWAGLGYYSRGRRLQEGARKVVEELGGHMPRTAETLQQLLPGVGRYTAGAIASIAFGQATGVVDGNVARVLCRVRAIGADPSSTLVSQQLWGLAQQLVDPARPGDFNQAAMELGATVCTPQRPLCSQCPVESLCRARQRVEQEQLLASGSLSGSPDVEECAPNFGQCHLCLPPSEPWDQTLGVVNFPRKASRKPPREESSATCVLEQPGALGAQILLVQRPNSGLLAGLWEFPSVTWEPSEQLQRKALLQELQRWAGPLPATHLRHLGEVVHTFSHIKLTYQVYGLALEGQTPVTTVPPGARWLTQEEFHTAAVSTAMKKVFRVYQGQQPGTCMGSKRSQVSSPCSRKKPRMGQQVLDNFFRSHISTDAHSLNSAAQ [T308F]	-0.0849
MRKPRAAVGSGHRKQAASQEGRQKHAKNNSQAKPSACDGLARQPEEVVLQASVSSYHLFRDVAEVTAFRGSLLSWYDQEKRDLPWRRRAEDEMDLDRRAYAVWVSEVMLQQTQVATVINYYTGWMQKWPTLQDLASASLEEVNQLWAGLGYYSRGRRLQEGARKVVEELGGHMPRTAETLQQLLPGVGRYTAGAIASIAFGQATGVVDGNVARVLCRVRAIGADPSSTLVSQQLWGLAQQLVDPARPGDFNQAAMELGATVCTPQRPLCSQCPVESLCRARQRVEQEQLLASGSLSGSPDVEECAPNNGQCHLCLPPSEPWDQTLGVVNFPRKASRKPPREESSATCVLEQPGALGAQILLVQRPNSGLLAGLWEFPSVTWEPSEQLQRKALLQELQRWAGPLPATHLRHLGEVVHTFSHIKLTYQVYGLALEGQTPVTTVPPGARWLTQEEFHTAAVSTAMKKVFRVYQGQQPGTCMGSKRSQVSSPCSRKKPRMGQQVLDNFFRSHISTDAHSLNSAAQ [T308N]	0.0456
MRKPRAAVGSGHRKQAASQEGRQKHAKNNSQAKPSACDGLARQPEEVVLQASVSSYHLFRDVAEVTAFRGSLLSWYDQEKRDLPWRRRAEDEMDLDRRAYAVWVSEVMLQQTQVATVINYYTGWMQKWPTLQDLASASLEEVNQLWAGLGYYSRGRRLQEGARKVVEELGGHMPRTAETLQQLLPGVGRYTAGAIASIAFGQATGVVDGNVARVLCRVRAIGADPSSTLVSQQLWGLAQQLVDPARPGDFNQAAMELGATVCTPQRPLCSQCPVESLCRARQRVEQEQLLASGSLSGSPDVEECAPNLGQCHLCLPPSEPWDQTLGVVNFPRKASRKPPREESSATCVLEQPGALGAQILLVQRPNSGLLAGLWEFPSVTWEPSEQLQRKALLQELQRWAGPLPATHLRHLGEVVHTFSHIKLTYQVYGLALEGQTPVTTVPPGARWLTQEEFHTAAVSTAMKKVFRVYQGQQPGTCMGSKRSQVSSPCSRKKPRMGQQVLDNFFRSHISTDAHSLNSAAQ [T308L]	-0.0193
MRKPRAAVGSGHRKQAASQEGRQKHAKNNSQAKPSACDGLARQPEEVVLQASVSSYHLFRDVAEVTAFRGSLLSWYDQEKRDLPWRRRAEDEMDLDRRAYAVWVSEVMLQQTQVATVINYYTGWMQKWPTLQDLASASLEEVNQLWAGLGYYSRGRRLQEGARKVVEELGGHMPRTAETLQQLLPGVGRYTAGAIASIAFGQATGVVDGNVARVLCRVRAIGADPSSTLVSQQLWGLAQQLVDPARPGDFNQAAMELGATVCTPQRPLCSQCPVESLCRARQRVEQEQLLASGSLSGSPDVEECAPNKGQCHLCLPPSEPWDQTLGVVNFPRKASRKPPREESSATCVLEQPGALGAQILLVQRPNSGLLAGLWEFPSVTWEPSEQLQRKALLQELQRWAGPLPATHLRHLGEVVHTFSHIKLTYQVYGLALEGQTPVTTVPPGARWLTQEEFHTAAVSTAMKKVFRVYQGQQPGTCMGSKRSQVSSPCSRKKPRMGQQVLDNFFRSHISTDAHSLNSAAQ [T308K]	-0.0882
MRKPRAAVGSGHRKQAASQEGRQKHAKNNSQAKPSACDGLARQPEEVVLQASVSSYHLFRDVAEVTAFRGSLLSWYDQEKRDLPWRRRAEDEMDLDRRAYAVWVSEVMLQQTQVATVINYYTGWMQKWPTLQDLASASLEEVNQLWAGLGYYSRGRRLQEGARKVVEELGGHMPRTAETLQQLLPGVGRYTAGAIASIAFGQATGVVDGNVARVLCRVRAIGADPSSTLVSQQLWGLAQQLVDPARPGDFNQAAMELGATVCTPQRPLCSQCPVESLCRARQRVEQEQLLASGSLSGSPDVEECAPNMGQCHLCLPPSEPWDQTLGVVNFPRKASRKPPREESSATCVLEQPGALGAQILLVQRPNSGLLAGLWEFPSVTWEPSEQLQRKALLQELQRWAGPLPATHLRHLGEVVHTFSHIKLTYQVYGLALEGQTPVTTVPPGARWLTQEEFHTAAVSTAMKKVFRVYQGQQPGTCMGSKRSQVSSPCSRKKPRMGQQVLDNFFRSHISTDAHSLNSAAQ [T308M]	-0.0648
MRKPRAAVGSGHRKQAASQEGRQKHAKNNSQAKPSACDGLARQPEEVVLQASVSSYHLFRDVAEVTAFRGSLLSWYDQEKRDLPWRRRAEDEMDLDRRAYAVWVSEVMLQQTQVATVINYYTGWMQKWPTLQDLASASLEEVNQLWAGLGYYSRGRRLQEGARKVVEELGGHMPRTAETLQQLLPGVGRYTAGAIASIAFGQATGVVDGNVARVLCRVRAIGADPSSTLVSQQLWGLAQQLVDPARPGDFNQAAMELGATVCTPQRPLCSQCPVESLCRARQRVEQEQLLASGSLSGSPDVEECAPNQGQCHLCLPPSEPWDQTLGVVNFPRKASRKPPREESSATCVLEQPGALGAQILLVQRPNSGLLAGLWEFPSVTWEPSEQLQRKALLQELQRWAGPLPATHLRHLGEVVHTFSHIKLTYQVYGLALEGQTPVTTVPPGARWLTQEEFHTAAVSTAMKKVFRVYQGQQPGTCMGSKRSQVSSPCSRKKPRMGQQVLDNFFRSHISTDAHSLNSAAQ [T308Q]	0.0017
MRKPRAAVGSGHRKQAASQEGRQKHAKNNSQAKPSACDGLARQPEEVVLQASVSSYHLFRDVAEVTAFRGSLLSWYDQEKRDLPWRRRAEDEMDLDRRAYAVWVSEVMLQQTQVATVINYYTGWMQKWPTLQDLASASLEEVNQLWAGLGYYSRGRRLQEGARKVVEELGGHMPRTAETLQQLLPGVGRYTAGAIASIAFGQATGVVDGNVARVLCRVRAIGADPSSTLVSQQLWGLAQQLVDPARPGDFNQAAMELGATVCTPQRPLCSQCPVESLCRARQRVEQEQLLASGSLSGSPDVEECAPNRGQCHLCLPPSEPWDQTLGVVNFPRKASRKPPREESSATCVLEQPGALGAQILLVQRPNSGLLAGLWEFPSVTWEPSEQLQRKALLQELQRWAGPLPATHLRHLGEVVHTFSHIKLTYQVYGLALEGQTPVTTVPPGARWLTQEEFHTAAVSTAMKKVFRVYQGQQPGTCMGSKRSQVSSPCSRKKPRMGQQVLDNFFRSHISTDAHSLNSAAQ [T308R]	0.0174
MRKPRAAVGSGHRKQAASQEGRQKHAKNNSQAKPSACDGLARQPEEVVLQASVSSYHLFRDVAEVTAFRGSLLSWYDQEKRDLPWRRRAEDEMDLDRRAYAVWVSEVMLQQTQVATVINYYTGWMQKWPTLQDLASASLEEVNQLWAGLGYYSRGRRLQEGARKVVEELGGHMPRTAETLQQLLPGVGRYTAGAIASIAFGQATGVVDGNVARVLCRVRAIGADPSSTLVSQQLWGLAQQLVDPARPGDFNQAAMELGATVCTPQRPLCSQCPVESLCRARQRVEQEQLLASGSLSGSPDVEECAPNHGQCHLCLPPSEPWDQTLGVVNFPRKASRKPPREESSATCVLEQPGALGAQILLVQRPNSGLLAGLWEFPSVTWEPSEQLQRKALLQELQRWAGPLPATHLRHLGEVVHTFSHIKLTYQVYGLALEGQTPVTTVPPGARWLTQEEFHTAAVSTAMKKVFRVYQGQQPGTCMGSKRSQVSSPCSRKKPRMGQQVLDNFFRSHISTDAHSLNSAAQ [T308H]	-0.0553
MRKPRAAVGSGHRKQAASQEGRQKHAKNNSQAKPSACDGLARQPEEVVLQASVSSYHLFRDVAEVTAFRGSLLSWYDQEKRDLPWRRRAEDEMDLDRRAYAVWVSEVMLQQTQVATVINYYTGWMQKWPTLQDLASASLEEVNQLWAGLGYYSRGRRLQEGARKVVEELGGHMPRTAETLQQLLPGVGRYTAGAIASIAFGQATGVVDGNVARVLCRVRAIGADPSSTLVSQQLWGLAQQLVDPARPGDFNQAAMELGATVCTPQRPLCSQCPVESLCRARQRVEQEQLLASGSLSGSPDVEECAPNGGQCHLCLPPSEPWDQTLGVVNFPRKASRKPPREESSATCVLEQPGALGAQILLVQRPNSGLLAGLWEFPSVTWEPSEQLQRKALLQELQRWAGPLPATHLRHLGEVVHTFSHIKLTYQVYGLALEGQTPVTTVPPGARWLTQEEFHTAAVSTAMKKVFRVYQGQQPGTCMGSKRSQVSSPCSRKKPRMGQQVLDNFFRSHISTDAHSLNSAAQ [T308G]	-0.0427
